Legend:
Assay in all cases: cell-based or functional assay
[1] = biological target: HIV-1 Env of pseudovirus Ce1086_B2 (HIV-1)
[2] = biological target: HIV-1 Env of pseudovirus THRO4156.18 (HIV-1)
[3] = biological target: HIV-1 Env of pseudovirus MS208.A1 (HIV-1)
[4] = biological target: HIV-1 Env of pseudovirus ZM109F.PB4 (HIV-1)
[5] = biological target: HIV-1 Env of pseudovirus 263-8 (HIV-1)
[6] = biological target: HIV-1 Env of pseudovirus Ce703010054_2A2 (HIV-1)
[7] = biological target: HIV-1 Env of pseudovirus A07412M1.vrc12 (HIV-1)
[8] = biological target: HIV-1 Env of pseudovirus Ce1176_A3 (HIV-1)
[9] = biological target: HIV-1 Env of pseudovirus ZM197M.PB7 (HIV-1)
[10] = biological target: HIV-1 Env of pseudovirus CAP210.2.00.E8 (HIV-1)
[11] = biological target: HIV-1 Env of pseudovirus CNE21 (HIV-1)
[12] = biological target: HIV-1 Env of pseudovirus Q842.d12 (HIV-1)
[13] = biological target: HIV-1 Env of pseudovirus BJOX010000.06.2 (HIV-1)
[14] = biological target: HIV-1 Env of pseudovirus SC05_8C11_2344 (HIV-1)
[15] = biological target: HIV-1 Env of pseudovirus QH0692.42 (HIV-1)
[16] = biological target: HIV-1 Env of pseudovirus Du422.1 (HIV-1)
[17] = biological target: HIV-1 Env of pseudovirus X2088_c9 (HIV-1)
[18] = biological target: HIV-1 Env of pseudovirus CAP45.2.00.G3 (HIV-1)
[19] = biological target: HIV-1 Env of pseudovirus 1054_07_TC4_1499 (HIV-1)
[20] = biological target: HIV-1 Env of pseudovirus T278-50 (HIV-1)
[21] = biological target: HIV-1 Env of pseudovirus PVO.4 (HIV-1)
[22] = biological target: HIV-1 Env of pseudovirus CNE52 (HIV-1)
[23] = biological target: HIV-1 Env of pseudovirus 6244_13_B5_4576 (HIV-1)
[24] = biological target: HIV-1 Env of pseudovirus CAAN5342.A2 (HIV-1)
[25] = biological target: HIV-1 Env of pseudovirus BF1266.431a (HIV-1)
[26] = biological target: HIV-1 Env of pseudovirus Ce1172_H1 (HIV-1)
[27] = biological target: HIV-1 Env of pseudovirus CNE58 (HIV-1)
[28] = biological target: HIV-1 Env of pseudovirus P0402_c2_11 (HIV-1)
[29] = biological target: HIV-1 Env of pseudovirus R3265.c06 (HIV-1)
[30] = biological target: HIV-1 Env of pseudovirus 0815.v3.c3 (HIV-1)
[31] = biological target: HIV-1 Env of pseudovirus Ce0393_C3 (HIV-1)
[32] = biological target: HIV-1 Env of pseudovirus X1254_c3 (HIV-1)
[33] = biological target: HIV-1 Env of pseudovirus 246F C1G (HIV-1)
[34] = biological target: HIV-1 Env of pseudovirus Ce704809221_1B3 (HIV-1)
[35] = biological target: HIV-1 Env of pseudovirus CNE19 (HIV-1)

## PGT128 (antibody)
[1]
  neutralization IC50: > 50 µg/mL
  neutralization IC80: > 50 µg/mL
[2]
  neutralization IC50: > 50 µg/mL
  neutralization IC80: > 50 µg/mL
[3]
  neutralization IC50: > 50 µg/mL
  neutralization IC80: > 50 µg/mL
[4]
  neutralization IC50: > 50 µg/mL
  neutralization IC80: > 50 µg/mL
[5]
  neutralization IC50: 0.342 µg/mL
  neutralization IC80: 3.3 µg/mL
[6]
  neutralization IC50: > 50 µg/mL
  neutralization IC80: > 50 µg/mL
[7]
  IC50 (Titer in TZM.bl cells): > 50 µg/mL
  IC80 (Titer in TZM.bl cells): > 50 µg/mL
[8]
  neutralization IC50: 0.009 µg/mL
  neutralization IC80: 0.026 µg/mL
[9]
  neutralization IC50: > 50 µg/mL
  neutralization IC80: > 50 µg/mL
[10]
  neutralization IC50: > 50 µg/mL
  neutralization IC80: > 50 µg/mL
[11]
  neutralization IC50: 0.01 µg/mL
  neutralization IC80: 0.026 µg/mL
[12]
  neutralization IC50: 0.008 µg/mL
  neutralization IC80: 0.102 µg/mL
[13]
  IC50 (Titer in TZM.bl cells): 4.82 µg/mL
  IC80 (Titer in TZM.bl cells): > 50 µg/mL
[14]
  neutralization IC50: 0.017 µg/mL
  neutralization IC80: 0.041 µg/mL
[15]
  neutralization IC50: 0.029 µg/mL
  neutralization IC80: 0.081 µg/mL
[16]
  neutralization IC50: 0.039 µg/mL
  neutralization IC80: 0.113 µg/mL
[17]
  IC50 (Titer in TZM.bl cells): > 50 µg/mL
  IC80 (Titer in TZM.bl cells): > 50 µg/mL
[18]
  neutralization IC50: > 50 µg/mL
  neutralization IC80: > 50 µg/mL
[19]
  neutralization IC50: 0.035 µg/mL
  neutralization IC80: 0.312 µg/mL
[20]
  IC50 (Titer in TZM.bl cells): 0.031 µg/mL
  IC80 (Titer in TZM.bl cells): 0.089 µg/mL
[21]
  neutralization IC50: 0.011 µg/mL
  neutralization IC80: 0.028 µg/mL
[22]
  neutralization IC50: > 50 µg/mL
  neutralization IC80: > 50 µg/mL
[23]
  neutralization IC50: 0.02 µg/mL
  neutralization IC80: 0.076 µg/mL
[24]
  neutralization IC50: 0.514 µg/mL
  neutralization IC80: > 50 µg/mL
[25]
  neutralization IC50: > 50 µg/mL
  neutralization IC80: > 50 µg/mL
[26]
  neutralization IC50: 0.013 µg/mL
  neutralization IC80: 0.038 µg/mL
[27]
  neutralization IC50: 13.8 µg/mL
  neutralization IC80: > 50 µg/mL
[28]
  IC50 (Titer in TZM.bl cells): 0.007 µg/mL
  IC80 (Titer in TZM.bl cells): 0.02 µg/mL
[29]
  IC50 (Titer in TZM.bl cells): > 50 µg/mL
  IC80 (Titer in TZM.bl cells): > 50 µg/mL
[30]
  IC50 (Titer in TZM.bl cells): 0.03 µg/mL
  IC80 (Titer in TZM.bl cells): 0.137 µg/mL
[31]
  neutralization IC50: > 50 µg/mL
  neutralization IC80: > 50 µg/mL
[32]
  IC50 (Titer in TZM.bl cells): > 50 µg/mL
  IC80 (Titer in TZM.bl cells): > 50 µg/mL
[33]
  neutralization IC50: 0.005 µg/mL
  neutralization IC80: 0.014 µg/mL
[34]
  neutralization IC50: 0.026 µg/mL
  neutralization IC80: 0.072 µg/mL
[35]
  neutralization IC50: > 50 µg/mL
  neutralization IC80: > 50 µg/mL
